What was measured:
Test in all cases: PBM
SHOX R173C (human) = settings: contrastQ 1.38E-15; Universal PBM, 200 nM protein in PBS; temperature and pH not stated in the material
HOXD13 T313R (human) = settings: contrastQ 1.85E-52; Universal PBM, 200 nM protein in PBS; temperature and pH not stated in the material
HESX1 N125S (human) = settings: Universal PBM, 200 nM protein in PBS, temperature and pH not stated in the material
PROP1 F88S (human) = settings: contrastQ 3.19E-277; Universal PBM, 200 nM protein in PBS; temperature and pH not stated in the material
HESX1 R109Q (human) = settings: contrastQ 1.24E-92; Universal PBM, 200 nM protein in PBS; temperature and pH not stated in the material
HESX1 R160C (human) = settings: contrastQ 1.53E-116; Universal PBM, 200 nM protein in PBS; temperature and pH not stated in the material
PROP1 R99Q (human) = settings: contrastQ 2.52E-38; Universal PBM, 200 nM protein in PBS; temperature and pH not stated in the material
HESX1 E149K (human) = settings: contrastQ 9.83E-08; Universal PBM, 200 nM protein in PBS; temperature and pH not stated in the material
NKX2-5 K183E (human) = settings: Universal PBM, 200 nM protein in PBS, temperature and pH not stated in the material
ARX P353R (human) = settings: Universal PBM, 200 nM protein in PBS; temperature and pH not stated in the material
ARX L343Q (human) = settings: contrastQ 3.05E-194; Universal PBM, 200 nM protein in PBS; temperature and pH not stated in the material
ARX T333N (human) = settings: contrastQ 5.30E-28; Universal PBM, 200 nM protein in PBS; temperature and pH not stated in the material
HOXD13 I322L (human) = settings: Universal PBM, 200 nM protein in PBS, temperature and pH not stated in the material
HOXD13 S316C (human) = settings: contrastQ 0.9698003 (no significant change); Universal PBM, 200 nM protein in PBS; temperature and pH not stated in the material

PBM 8-mer ATTATAAT gave a binding signal (contrast difference vs reference) (SHOX R173C (human)) of -1.91.
In the case of PBM 8-mer CAATAAAA, the binding signal (contrast difference vs reference) (HOXD13 T313R (human)) is reported as -1.23.
Work on PBM 8-mer CAATTAAA yielded a binding signal (contrast difference vs reference) (HESX1 N125S (human); contrastQ 0.7783541 (no significant change)) of -0.277.
In the case of PBM 8-mer CTAATTGA, the binding signal (contrast difference vs reference) (PROP1 F88S (human)) is reported as -4.12, the binding signal (contrast difference vs reference) (HESX1 R109Q (human)) is reported as -3.4 and the binding signal (contrast difference vs reference) (HESX1 R160C (human)) is reported as -2.1. For the same substance, the binding signal (contrast difference vs reference) (PROP1 R99Q (human)) was -0.687, the binding signal (contrast difference vs reference) (HESX1 N125S (human); contrastQ 0.9069244 (no significant change)) was -0.172 and the binding signal (contrast difference vs reference) (HESX1 E149K (human)) was -0.502.
PBM 8-mer GCACTTCA showed a binding signal (contrast difference vs reference) (NKX2-5 K183E (human); contrastQ 5.13E-38) of -1.27.
Work on PBM 8-mer GCACTTGA yielded a binding signal (contrast difference vs reference) (NKX2-5 K183E (human); contrastQ 1.87E-56) of -1.44.
PBM 8-mer GTTAATTA gave a binding signal (contrast difference vs reference) (ARX P353R (human)) of -2.42, a binding signal (contrast difference vs reference) (ARX L343Q (human)) of -2.29 and a binding signal (contrast difference vs reference) (ARX T333N (human)) of -0.803.
Substance PBM 8-mer TCATAAAA has a binding signal (contrast difference vs reference) (HOXD13 I322L (human); contrastQ 8.96E-16) of -1.15 and a binding signal (contrast difference vs reference) (HOXD13 S316C (human)) of 0.133.
In the case of PBM 8-mer TCGTAAAA, the binding signal (contrast difference vs reference) (HOXD13 I322L (human); contrastQ 3.41E-01 (no significant change)) is reported as 0.259 and the binding signal (contrast difference vs reference) (HOXD13 S316C (human)) is reported as 0.128.
